The text below walks through data of patent US20150148405A1, “Expression Construct for a Lin28-Resistant Let-7 Precursor MicroRNA” (THE JOHNS HOPKINS UNIVERSITY, priority 2012, published 2015).

What all share (assay type): cell-based, mouse
For one experiment, the system named is TRBP. Kind of experiment: Immunoblotting for TRBP. As to conditions: 5 min after BDNF; +/-0.86. How it is done: (§1) Primary cultures of mouse hippocampal neurons (DIV 14 15) were incubated in serum-reduced medium (0.5% B27 supplement) for 2 hours, followed by […] Actinomycin-D for 10-20 min. Bath application of BDNF (100 ng/mL) was for designated periods (5 min-2 hours). The cultures were washed 3 times and harvested on ice with lysis buffer (50 mM Hepes, 150 mM NaCl, 10% Glycerol, 1 mM EDTA, 1% Triton-X-100, 0.2% SDS) plus freshly added protease inhibitor cocktail (Roche) and PMSF. Protein concentration was determined by Bradford Assay. If required, lysates were treated with Lambda Protein Phosphatase according to manufacturer's instructions (New England Biolabs […]). Equal amounts of lysate protein were resolved on SDS-PAGE gels, and electrotransferred to PVDF membrane. […]

Another experiment deals with phospho-ERK. Kind of experiment: Immunoblotting for phospho-ERK. As to conditions: BDNF-stimulated neurons, Actinomycin-D. How it is done:
as §1
Background: A western blot detects proteins with antibodies after separation by electrophoresis.

For the next experiment, the system named is Lin28a. The experiment can be described thus: Immunoblotting for Lin28a. The conditions noted are these: mature neurons, by 5 min following BDNF exposure. The method, then: as §1
In experiment [1] the test system is Let-7 miRNA binding sites. Kind of experiment: Let-7 luciferase reporter assay. As to conditions: BDNF 4 hr, transcription blockade; control reporters unchanged. The text has this:
Let-7 luciferase reporters (gift of G. Hannon) harbor a wildtype or a mutant Let-7 miRNA binding site. The Let-7 miRNA binding sites are derived from a short 3′UTR segment of C. elegans Lin41 mRNA containing two adjacent proven Let-7 miRNA biding sites and are cloned into 3′UTR of firefly luciferase in a pcDNA backbone. Mutations in seed regions of both Let-7 binding sites were made for a negative control reporter, which was documented not regulated by endogenous Let-7 miRNAs. Co-transfection of the pCSK-lacZ vector, which constitutively expresses β-galactosidase and is not regulated by shRNA, served to normalize transfection efficiency and extract recovery for each sample in all reporter assays. The DNA amounts used for each well (24 well plate) were 15 ng of any luciferase reporter, 85 ng of β-gal (CSK-LacZ), and/or 75-300 ng of CXCR4 shRNA. Each reporter experiment included extracts from cells transfected with pcDNA3.1 alone as a reference control. […] Cell lysates were collected in 1×lysis buffer (reporter lysis buffer, Promega), and luciferase (Promega) and chemiluminescent β-gal (Roche) reporter assays carried out according to manufacturer instructions using a plate-reading luminometer (Perkin Elmer). […] When required, fold change was calculated by dividing normalized stimulated samples by normalized unstimulated samples.

B1: BDNF: brain-derived neurotrophic factor, a neurotrophin used to stimulate hippocampal neurons (protein, UniProt P23560 19-247, looked up)
Neurotrophic factor BDNF …: APMKEANIRGQGGLAYPGVRTHGTLESVNGPKAGSRGLTSLADTFEHVIEELLDEDQKVRPNEENNKDADLYTSRVMLSSQVPLEPPLLFLLEEYKNYLDAANMSMRVRRHSDPARRGELSVCDSISEWVTAADKKTAVDMSGGTVTVLEKVPVSKGQLKQYFYETKCNPMGYTKEGCRGIDKRHWNSQCRTTQSYVRALTMDSKKRIGWRFIRIDTSCVCTLTIKRGR
B1: the “total TRBP protein levels, fold increase” value in the experiment with TRBP came out at 2.61 fold. In the experiment on phospho-ERK, the phospho-ERK induction entry is listed as “rapidly induced phospho-ERK”. In the experiment with Lin28a, the Lin28a protein entry is “robust and rapid transcription-independent increase in Lin28a”. Also, the “luciferase reporter containing Let-7 binding sites” value in experiment [1] is listed as “significantly induced”.
